Experimental data reported in patent US20080131908A1 (Genentech, published 2008).
Each block holds one molecule with its values, some of them ahead of it.

How the values were obtained:
[1] = biological target: T1, Notch3-LD/Fc fusion protein (human, UniProt Q9UM47 1378-1640); assay: ELISA, hybridoma supernatant on coated Notch3-LD/Fc (0.1 ug/ml); control beside 256A-13
T1 construct: A signal peptide was linked to the N-terminus (not identified, left out); not described; also called Notch3/Fc fusion protein
T1 sequence: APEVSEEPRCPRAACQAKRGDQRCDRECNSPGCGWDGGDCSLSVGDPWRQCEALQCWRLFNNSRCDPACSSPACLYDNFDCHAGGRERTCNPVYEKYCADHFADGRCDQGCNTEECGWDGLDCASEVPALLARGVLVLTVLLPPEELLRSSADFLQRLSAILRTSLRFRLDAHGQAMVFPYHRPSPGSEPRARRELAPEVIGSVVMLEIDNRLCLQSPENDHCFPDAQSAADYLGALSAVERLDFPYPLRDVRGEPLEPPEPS

[2] = biological target: Notch3-EGF/Fc fusion protein (human) (UniProt Q9UM47); assay: ELISA, hybridoma supernatant on coated Notch3-EGF/Fc (0.1 ug/ml); control beside 255A-71
[3] = biological target: Notch3-EGF/Fc fusion protein (human) (UniProt Q9UM47); assay: ELISA, hybridoma supernatant on coated Notch3-EGF/Fc (0.1 ug/ml); control beside 255A-77
[4] = biological target: human Notch3 (full-length) (human) (UniProt Q9UM47); assay: FACS on Sup-T1 cells (native Notch3)
[5] = biological target: human Notch3 (full-length) (human) (UniProt Q9UM47); assay: FACS on 293T cells transiently transfected with Notch3/Hygromycin
[6] = biological target: T1, Notch3-LD/Fc fusion protein; assay: Western blot, denaturing conditions
Description: Western blot was performed to assess anti-Notch3 mAbs binding activity to Notch3 under denaturing condition. For this purpose, purified Notch3-EGF/Fc and Notch3-LD/Fc fusion proteins were combined with protein loading buffer (BioRad, Hercules, Calif.). Protein samples were also prepared from the transiently or stably transfected cells described in Example 1, which were harvested from culture dishes, washed once with phosphate buffered saline (PBS), resuspended in deionized water, and heated at 100° C. for 10 minutes after adding equal volume of 2× protein sample loading buffer (BioRad, Hercules, Calif.). All samples were separated by electrophoresis in a 4-15% gradient SDS-PAGE (BioRad, Hercules, Calif.). The proteins were transferred from gel to PVDF membrane (BioRad, Hercules, Calif.) and anti-Notch3 mAbs were applied to the Western blot membrane as the primary detection antibody. An HRP-conjugated secondary antibody was used for detection and the signal generated using a Supersignal Chemiluminescent Substrate (Pierce, Rockford, Ill.) as described above.

Notch3-LDTM/V5 = biological target: T2, Notch3-LDTM/V5 (human, UniProt Q9UM47 1378-1664, limits assumed); assay: cell-based FMAT assay on cells expressing Notch3-LDTM
T2 construct: not shown: V5 tag at the C-terminus
T2 sequence: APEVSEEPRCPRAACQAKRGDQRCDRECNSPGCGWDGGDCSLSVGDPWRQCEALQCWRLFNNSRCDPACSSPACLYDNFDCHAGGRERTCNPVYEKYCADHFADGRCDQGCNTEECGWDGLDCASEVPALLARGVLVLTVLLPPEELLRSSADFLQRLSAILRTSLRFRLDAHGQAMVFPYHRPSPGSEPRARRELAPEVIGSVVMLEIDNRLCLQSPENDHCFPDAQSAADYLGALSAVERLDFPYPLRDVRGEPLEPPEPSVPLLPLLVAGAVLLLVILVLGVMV
Description: Cell-based antibody-binding was assessed using FMAT™ 8100 HTS System (Applied Biosystems, Foster City, Calif.) and protocol provided by the manufacturer with some modification. Cell lines expressing Notch3 were seeded in 96-well plates at a density of 30,000-50,000 cells per well. After 20-24 hours, anti-Notch3 mAbs and 1×PBS reaction buffer were added to the wells and incubated for one hour at 37° C. Cy-5-conjugated anti-mouse IgG antibody was added to the wells after removal of primary antibodies. The fluorescent intensity of bound antibody was measured by FMAT™ 8100 HTS System.

Notch3-EGF/Fc fusion protein (human), sequence (Q9UM47 43-1377): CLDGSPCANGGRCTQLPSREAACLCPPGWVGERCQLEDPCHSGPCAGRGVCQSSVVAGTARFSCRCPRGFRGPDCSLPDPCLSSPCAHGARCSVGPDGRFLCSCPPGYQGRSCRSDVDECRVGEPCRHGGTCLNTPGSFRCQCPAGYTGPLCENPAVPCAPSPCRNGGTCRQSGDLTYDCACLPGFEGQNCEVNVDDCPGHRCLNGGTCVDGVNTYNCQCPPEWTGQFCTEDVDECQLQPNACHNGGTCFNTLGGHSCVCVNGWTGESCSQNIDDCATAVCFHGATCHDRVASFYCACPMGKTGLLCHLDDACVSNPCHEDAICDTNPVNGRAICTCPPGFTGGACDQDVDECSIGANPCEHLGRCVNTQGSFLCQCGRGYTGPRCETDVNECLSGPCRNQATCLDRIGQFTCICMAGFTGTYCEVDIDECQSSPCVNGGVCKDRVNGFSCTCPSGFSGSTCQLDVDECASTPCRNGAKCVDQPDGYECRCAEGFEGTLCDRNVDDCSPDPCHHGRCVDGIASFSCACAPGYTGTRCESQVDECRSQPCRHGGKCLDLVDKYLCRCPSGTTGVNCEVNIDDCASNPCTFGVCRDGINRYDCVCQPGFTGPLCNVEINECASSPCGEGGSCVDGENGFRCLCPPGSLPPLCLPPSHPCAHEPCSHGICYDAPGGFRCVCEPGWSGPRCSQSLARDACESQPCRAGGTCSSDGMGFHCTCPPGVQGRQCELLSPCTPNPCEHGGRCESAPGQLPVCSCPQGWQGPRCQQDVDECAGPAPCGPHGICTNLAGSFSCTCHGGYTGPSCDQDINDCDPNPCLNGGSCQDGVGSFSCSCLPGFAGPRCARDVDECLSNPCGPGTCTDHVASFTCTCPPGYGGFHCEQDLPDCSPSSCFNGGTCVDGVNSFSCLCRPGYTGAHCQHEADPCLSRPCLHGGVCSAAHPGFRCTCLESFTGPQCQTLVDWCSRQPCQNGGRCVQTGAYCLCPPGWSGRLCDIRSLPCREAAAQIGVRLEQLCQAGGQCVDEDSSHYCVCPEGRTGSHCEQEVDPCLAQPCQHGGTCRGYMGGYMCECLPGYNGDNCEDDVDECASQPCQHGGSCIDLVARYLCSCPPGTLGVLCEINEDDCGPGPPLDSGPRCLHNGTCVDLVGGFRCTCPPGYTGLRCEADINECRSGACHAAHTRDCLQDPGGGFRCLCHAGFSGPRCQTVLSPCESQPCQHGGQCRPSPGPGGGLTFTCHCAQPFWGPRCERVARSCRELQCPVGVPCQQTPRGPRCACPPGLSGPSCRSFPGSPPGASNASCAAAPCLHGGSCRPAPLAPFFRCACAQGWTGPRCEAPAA
human Notch3 (full-length) (human), sequence (Q9UM47 40-2321 A2223V limits assumed): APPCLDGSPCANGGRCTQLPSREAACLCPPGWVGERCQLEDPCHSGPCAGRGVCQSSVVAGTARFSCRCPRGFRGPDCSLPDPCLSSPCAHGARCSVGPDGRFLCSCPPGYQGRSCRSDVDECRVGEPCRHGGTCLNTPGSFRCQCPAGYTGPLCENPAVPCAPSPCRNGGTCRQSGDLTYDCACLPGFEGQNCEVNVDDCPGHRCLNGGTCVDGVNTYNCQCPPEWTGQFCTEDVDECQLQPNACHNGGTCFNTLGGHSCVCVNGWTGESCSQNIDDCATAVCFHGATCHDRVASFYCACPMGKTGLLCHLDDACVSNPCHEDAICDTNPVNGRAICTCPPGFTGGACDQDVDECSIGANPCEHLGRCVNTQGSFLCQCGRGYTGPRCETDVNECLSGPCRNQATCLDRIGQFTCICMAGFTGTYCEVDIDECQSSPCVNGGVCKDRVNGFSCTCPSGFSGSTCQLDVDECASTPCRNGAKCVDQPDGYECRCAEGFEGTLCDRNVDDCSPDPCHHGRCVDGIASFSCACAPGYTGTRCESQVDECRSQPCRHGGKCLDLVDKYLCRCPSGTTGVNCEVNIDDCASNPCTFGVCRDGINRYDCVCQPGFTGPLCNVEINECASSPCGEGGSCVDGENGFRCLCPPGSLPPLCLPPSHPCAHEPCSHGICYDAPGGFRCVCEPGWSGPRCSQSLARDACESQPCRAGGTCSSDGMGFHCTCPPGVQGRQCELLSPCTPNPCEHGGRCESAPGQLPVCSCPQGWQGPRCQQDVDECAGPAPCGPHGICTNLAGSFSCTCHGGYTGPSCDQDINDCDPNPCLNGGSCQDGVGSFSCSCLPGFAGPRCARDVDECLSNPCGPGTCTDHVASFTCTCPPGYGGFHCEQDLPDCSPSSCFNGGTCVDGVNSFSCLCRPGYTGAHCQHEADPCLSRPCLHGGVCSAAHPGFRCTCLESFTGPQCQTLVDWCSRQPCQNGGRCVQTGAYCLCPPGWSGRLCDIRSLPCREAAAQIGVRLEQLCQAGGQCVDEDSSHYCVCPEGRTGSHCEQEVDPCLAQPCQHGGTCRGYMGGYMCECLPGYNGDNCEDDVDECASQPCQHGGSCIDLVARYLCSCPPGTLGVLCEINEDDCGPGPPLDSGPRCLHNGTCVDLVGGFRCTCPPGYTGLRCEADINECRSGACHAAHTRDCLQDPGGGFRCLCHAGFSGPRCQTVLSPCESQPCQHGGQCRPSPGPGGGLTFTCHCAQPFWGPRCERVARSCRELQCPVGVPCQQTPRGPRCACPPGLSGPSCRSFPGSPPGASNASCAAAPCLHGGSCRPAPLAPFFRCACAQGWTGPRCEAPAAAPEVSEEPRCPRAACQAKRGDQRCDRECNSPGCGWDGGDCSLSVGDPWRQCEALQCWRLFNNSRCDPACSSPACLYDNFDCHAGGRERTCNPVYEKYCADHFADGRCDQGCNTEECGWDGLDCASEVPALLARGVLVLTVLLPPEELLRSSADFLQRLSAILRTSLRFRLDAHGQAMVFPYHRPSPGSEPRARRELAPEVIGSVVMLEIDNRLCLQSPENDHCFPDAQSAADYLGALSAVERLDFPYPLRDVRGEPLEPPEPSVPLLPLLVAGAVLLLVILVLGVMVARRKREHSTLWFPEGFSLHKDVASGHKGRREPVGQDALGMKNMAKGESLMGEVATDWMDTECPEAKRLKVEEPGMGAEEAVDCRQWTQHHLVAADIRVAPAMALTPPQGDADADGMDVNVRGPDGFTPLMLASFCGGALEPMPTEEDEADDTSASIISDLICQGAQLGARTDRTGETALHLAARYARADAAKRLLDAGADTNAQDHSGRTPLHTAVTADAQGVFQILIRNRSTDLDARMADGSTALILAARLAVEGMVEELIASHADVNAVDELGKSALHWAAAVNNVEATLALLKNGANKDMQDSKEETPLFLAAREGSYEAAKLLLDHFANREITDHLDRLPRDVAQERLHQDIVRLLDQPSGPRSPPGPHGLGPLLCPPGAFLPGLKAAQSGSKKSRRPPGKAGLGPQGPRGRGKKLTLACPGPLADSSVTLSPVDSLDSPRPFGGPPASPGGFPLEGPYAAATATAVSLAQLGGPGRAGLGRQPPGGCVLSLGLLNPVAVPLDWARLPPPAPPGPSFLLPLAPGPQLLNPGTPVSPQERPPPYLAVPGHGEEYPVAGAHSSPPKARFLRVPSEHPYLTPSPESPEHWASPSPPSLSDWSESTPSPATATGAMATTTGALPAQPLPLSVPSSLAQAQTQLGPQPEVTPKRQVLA

ELISA OD at 450 nm (mean) [1]: 0.019 OD
ELISA OD at 450 nm (mean) [2]: 0.01 OD
ELISA OD at 450 nm (mean) [3]: 0.019 OD
Molecule: Control hybridoma supernatant (antibody)

mean fluorescence intensity [4]: 24.5 MFI
mean fluorescence intensity [5]: 24.2 MFI
Molecule: Control IgG1 (antibody)

binding result [6]: no binding
binding result (Notch3-LDTM/V5): no binding
B1: anti-Notch 3 monoclonal antibody mAb 255A-77 (antibody, V domains shown)
VH: QVQLQQSGDDLVKPGASVKLSCKASGYTFTSYWINWIKQRPGQGLEWIGHIGPGSGSTYYNEIFKGKATLTVDTSSSTAYIQLSSLSSEDSAVYFCVLTRYFYAMDYWGQGTSVTVSS
VL: DIVMTQSPSSLAVTAGEKVTMRCKSSQSLLWSVNQNNYLSWYQQKQGQPPKLLIYGASIRESWVPDRFTGSGSGTDFTLTISNVHVEDLAVYYCQHNHGSFLPLTFGAGTKLELKR
notes: Mouse hybridoma mAb raised against Notch3-EGF/Fc

binding result [6]: no binding
binding result (Notch3-LDTM/V5): no binding
B2: anti-Notch 3 monoclonal antibody mAb 255A-71 (antibody, V domains shown)
VH: DVQLQESGPGLVKPSQSLSLTCSVTGYSITSGYYWNWIRQFPGNKLEWMGFISYDGSNNYNPSLKNRISITRDTSKNQFFLKLNSVTTEDTATFYCATLYYDYDGNYFDYWGQGTTLTVSS
VL: CDIQMTQTTSSLSASLGDRVTISCRTSQDISNYLNWYQQKPDGTVKLLIYYTSRLHSGVPSRFSGSGSGTDYSLTISNLEQEDIATYFCQQGNALPLTFGPGTKLELKR
notes: as for B1
